The series concerns the molecule itself. Nature of the series: high-speed atomic force microscopy.

Several values for one entry are separate records, joined by “and”; a condition that tells them apart may be missing. Equal entries are not always repeated.

B1: Human Recombinant ADAR Protein NM_001025107 (ADAR1-p110) (enzyme, UniProt P55265-5 1-931, looked up)
chain: MAEIKEKICDYLFNVSDSSALNLAKNIGLTKARDINAVLIDMERQGDVYRQGTTPPIWHLTDKKRERMQIKRNTNSVPETAPAAIPETKRNAEFLTCNIPTSNASNNMVTTEKVENGQEPVIKLENRQEARPEPARLKPPVHYNGPSKAGYVDFENGQWATDDIPDDLNSIRAAPGEFRAIMEMPSFYSHGLPRCSPYKKLTECQLKNPISGLLEYAQFASQTCEFNMIEQSGPPHEPRFKFQVVINGREFPPAEAGSKKVAKQDAAMKAMTILLEEAKAKDSGKSEESSHYSTEKESEKTAESQTPTPSATSFFSGKSPVTTLLECMHKLGNSCEFRLLSKEGPAHEPKFQYCVAVGAQTFPSVSAPSKKVAKQMAAEEAMKALHGEATNSMASDNQPEGMISESLDNLESMMPNKVRKIGELVRYLNTNPVGGLLEYARSHGFAAEFKLVDQSGPPHEPKFVYQAKVGGRWFPAVCAHSKKQGKQEAADAALRVLIGENEKAERMGFTEVTPVTGASLRRTMLLLSRSPEAQPKTLPLTGSTFHDQIAMLSHRCFNTLTNSFQPSLLGRKILAAIIMKKDSEDMGVVVSLGTGNRCVKGDSLSLKGETVNDCHAEIISRRGFIRFLYSELMKYNSQTAKDSIFEPAKGGEKLQIKKTVSFHLYISTAPCGDGALFDKSCSDRAMESTESRHYPVFENPKQGKLRTKVENGEGTIPVESSDIVPTWDGIRLGERLRTMSCSDKILRWNVLGLQGALLTHFLQPIYLKSVTLGYLFSQGHLTRAICCRVTRDGSAFEDGLRHPFIVNHPKVGRVSIYDSKRQSGKTKETSVNWCLADGYDLEILDGTRGTVDGPRNELSRVSKKNIFLLFKKLCSFRYRRDLLRLSYGEAKKAARDYETAKNYFKKGLKDMGYGNWISKPQEEKNFYLCPV
Usually stoichiometry N stands for the number of molecules, sites or subunits per partner or assembly. With B1, the “stoichiometry N” value was 2 and 3 and 4.

Values taken from article PMC12106642 (Nature Communications, 2025).
